According to PMC10902665, “Stable structures or PABP1 loading protects cellular and viral RNAs against ISG20-mediated decay”:

How the values were obtained:
ISG20 WT = ISG20 WT (UniProt Q96AZ6 1-181); experiment: EMSA; 10 mM Mn2+; ISG20 50-1600 nM, RNA 10 nM; fitted curve, no Kd printed in the material; ISG20 EMSA: 50 mM Tris-HCl pH 7.4, 150 mM NaCl, 5 mM b-mercaptoethanol, 10 mM MnCl2, 0.1 ug/ul BSA, 5% glycerol, 30 C 30 min; PABP1 EMSA: 25 mM Tris-HCl pH 7.4, 5 mM MgCl2, 100 mM NaCl, 2.5 mM DTT, 0.2 ug/ul BSA, 10% glycerol, 37 C 15 min; conditions: protein: recombinant; tags: N-terminal 6xHis; label: 5' 32P; hairpin
Sequence of ISG20 WT (Q96AZ6 whole entry): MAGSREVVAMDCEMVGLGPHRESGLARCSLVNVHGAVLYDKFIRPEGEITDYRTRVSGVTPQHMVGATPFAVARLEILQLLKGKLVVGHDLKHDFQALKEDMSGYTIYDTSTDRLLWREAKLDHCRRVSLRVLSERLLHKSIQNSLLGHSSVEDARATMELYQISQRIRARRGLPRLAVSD

[1] = target: PABP1 (poly(A)-binding protein 1) (UniProt P11940 1-636); experiment: EMSA; 5 mM Mg2+; PABP1 50-500 nM, RNA 10 nM; ISG20 EMSA: 50 mM Tris-HCl pH 7.4, 150 mM NaCl, 5 mM b-mercaptoethanol, 10 mM MnCl2, 0.1 ug/ul BSA, 5% glycerol, 30 C 30 min; PABP1 EMSA: 25 mM Tris-HCl pH 7.4, 5 mM MgCl2, 100 mM NaCl, 2.5 mM DTT, 0.2 ug/ul BSA, 10% glycerol, 37 C 15 min; conditions: protein: recombinant; tags: His; label: 5' 32P; single strand
Sequence of PABP1 (poly(A)-binding protein 1) (P11940 whole entry): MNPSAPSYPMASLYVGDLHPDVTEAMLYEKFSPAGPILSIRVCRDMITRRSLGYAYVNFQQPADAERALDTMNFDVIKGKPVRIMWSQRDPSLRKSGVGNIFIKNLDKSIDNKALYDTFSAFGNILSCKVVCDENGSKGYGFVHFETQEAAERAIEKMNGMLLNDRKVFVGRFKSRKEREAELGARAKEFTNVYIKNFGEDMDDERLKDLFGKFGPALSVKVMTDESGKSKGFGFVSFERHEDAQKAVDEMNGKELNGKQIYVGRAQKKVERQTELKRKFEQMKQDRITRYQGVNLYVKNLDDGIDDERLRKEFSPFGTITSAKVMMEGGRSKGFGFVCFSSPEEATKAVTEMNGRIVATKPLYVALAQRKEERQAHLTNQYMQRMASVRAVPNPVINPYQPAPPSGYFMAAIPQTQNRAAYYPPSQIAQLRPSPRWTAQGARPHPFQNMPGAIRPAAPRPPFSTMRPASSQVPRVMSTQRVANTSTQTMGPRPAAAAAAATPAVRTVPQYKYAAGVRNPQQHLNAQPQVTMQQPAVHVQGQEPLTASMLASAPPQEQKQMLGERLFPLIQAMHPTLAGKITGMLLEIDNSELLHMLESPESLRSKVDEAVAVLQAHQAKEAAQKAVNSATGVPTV

GGGGCCAGAUCUGAGCCUGGGAGCUCUCUGGCCC (structured_RNA) [TAR-9SL]
binding result (ISG20 WT): binds

ACACACACACACACACACACAAAAAAAAAAAAAAAAAAAA (ssRNA) [(AC)10A20, poly(A)-containing linear RNA]
binding result [1]: binds
